Experimental data: US20230106247A1 (L AND L BIO CO LTD NINGBO CHINA, published 2023)

How the values were obtained:
[1] = target: T1, human Sirpα-V1-his (human, UniProt P78324 31-373); experiment: blocking ELISA, competitor CD47-hFc
T1 construct: range 31-373; Bought (Sino Biological 11612-H08H) or expressed in-house; also called hSirpα-V1; hSirpα-V1-his
Description: The recombinant proteins such as human Sirpα-V1-hFc/Sirpα-V1-his were diluted to concentrations of 5 μg/mL or 2 μg/mL respectively with a PBS buffer at pH 7.4, and then added into a 96-well ELISA plate (Corning, CLS3590-100EA) at a volume of 50 μL/well, and placed in an incubator at 37° C. for 2 hours. After the liquid was discarded, the wells were added with a blocking solution of 5% skimmed milk (skimmed milk powder available from Bright Dairy) diluted with PBS at 230 μL/well, and incubated in an incubator at 37° C. for 3 hours, or placed overnight at 4° C. (for 16-18 hours) for blocking. […] The plate was washed for 5 times, added with 50 μL/well of streptavidin-HRP (GenScript, M00091) or anti-his-HRP secondary antibody (GenScript, A00612) diluted at 1:1000, incubated at 37° C. for 1 hour, and then washed with PBST for 5 times. Each well was added with 50 μL of TMB (Surmodic, Cat #: TTMB-1000-01) for color development, and added with 50 μL/well of 1 M H₂SO₄ to stop the reaction. The readings on a microplate reader (MultiskanGO Thermo, Model 51119200) were subjected to data analysis by GraphPad prism 5.

[2] = target: T2, Cyno Sirpα L939 (cynomolgus, limits assumed); experiment: ELISA
T2 construct: also called RB6-2; Cyno Sirpα polymorphism 6 (L939)
T2 chain: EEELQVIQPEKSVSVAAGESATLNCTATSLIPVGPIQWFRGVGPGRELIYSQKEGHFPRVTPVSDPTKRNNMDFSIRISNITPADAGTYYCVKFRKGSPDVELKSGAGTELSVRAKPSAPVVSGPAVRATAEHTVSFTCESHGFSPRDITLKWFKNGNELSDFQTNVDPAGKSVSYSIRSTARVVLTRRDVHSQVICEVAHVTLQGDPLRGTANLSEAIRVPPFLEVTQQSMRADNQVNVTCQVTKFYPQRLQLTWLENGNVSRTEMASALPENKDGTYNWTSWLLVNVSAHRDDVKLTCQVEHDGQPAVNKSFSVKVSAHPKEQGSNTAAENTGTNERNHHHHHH
Description: (§1) Different antigens (recombinant proteins) such as the human Sirpα-V1-hFc, Sirpα-V1-his, Sirpα-V2-his, Sirpβ-his, Sirpγ-his, monkey Sirpα-his (cynoSirpα-his) or NOD-mSirpα-his described in Example 1 were diluted with a PBS buffer at pH7.4 to concentrations of 1 μg/mL, 2 μg/mL or 5 μg/mL, added into a 96-well ELISA plate (Corning, CLS3590-100EA) at a volume of 50 μL/well, and placed in an incubator at 37° C. for 2 hours. After the liquid was discarded, the wells were added with a blocking solution of 5% skimmed milk (skimmed milk powder available from Bright Dairy) diluted with PBS at 230 μL/well, and incubated in an incubator at 37° C. for 3 hours, or placed overnight at 4° C. (for 16-18 hours) for blocking. The blocking solution was discarded, and the plate was washed with a PBST buffer (pH7.4 PBS containing 0.05% Tween-20) for 5 times, then added with 50 μL/well of the supernatant (containing a detection antibody) or 10 μg/mL of the starting 5-fold gradient dilution of the antibody to be tested, and incubated at 37° C. for 1 hour. […] The plated was washed with PBST for 5 times, then added with 50 μL/well of TMB chromogenic substrate (KPL, Cat #: 52-00-03), incubated at room temperature for 10-15 min, added with 50 μL/well of 1 M H₂SO₄ to stop the reaction, and read by a […] Go microplate reader (ThermoFisher, Cat #: 51119200) for the absorbance value at 450 nm, and then a clone with high binding activity was selected or a EC₅₀ value was calculated according to the OD value.

[3] = target: T3, Cyno Sirpα L932 (cynomolgus); experiment: ELISA
T3 chain: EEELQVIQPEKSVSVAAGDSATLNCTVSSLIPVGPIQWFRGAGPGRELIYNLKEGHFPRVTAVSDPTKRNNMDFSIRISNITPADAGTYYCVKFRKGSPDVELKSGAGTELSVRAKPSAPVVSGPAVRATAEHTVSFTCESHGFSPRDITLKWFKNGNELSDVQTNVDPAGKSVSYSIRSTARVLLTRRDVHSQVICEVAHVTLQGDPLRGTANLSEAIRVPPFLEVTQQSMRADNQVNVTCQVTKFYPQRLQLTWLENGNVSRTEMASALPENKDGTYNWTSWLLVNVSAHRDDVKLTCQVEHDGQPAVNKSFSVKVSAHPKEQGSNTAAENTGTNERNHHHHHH
Description: as §1

[4] = target: T1, human Sirpα-V1-his; experiment: ELISA
Description: as §1

[5] = target: T4, Cyno Sirpα L936 (cynomolgus); experiment: ELISA
T4 construct: also called RB3-3; Cyno Sirpα polymorphism 3 (L936)
T4 chain: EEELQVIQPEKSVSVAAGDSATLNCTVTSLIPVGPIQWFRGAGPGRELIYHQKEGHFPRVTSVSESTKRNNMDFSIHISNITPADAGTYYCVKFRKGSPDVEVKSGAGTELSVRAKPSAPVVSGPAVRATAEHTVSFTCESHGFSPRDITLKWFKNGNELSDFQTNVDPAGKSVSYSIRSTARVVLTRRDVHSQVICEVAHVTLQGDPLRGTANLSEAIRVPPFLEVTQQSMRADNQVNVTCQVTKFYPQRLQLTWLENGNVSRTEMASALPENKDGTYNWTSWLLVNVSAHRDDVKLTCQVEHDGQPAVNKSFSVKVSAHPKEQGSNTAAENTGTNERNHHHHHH
Description: as §1

[6] = target: T5, Cyno Sirpα L938 (cynomolgus, limits assumed); experiment: ELISA
T5 construct: also called RB6-1; Cyno Sirpα polymorphism 5 (L938)
T5 chain: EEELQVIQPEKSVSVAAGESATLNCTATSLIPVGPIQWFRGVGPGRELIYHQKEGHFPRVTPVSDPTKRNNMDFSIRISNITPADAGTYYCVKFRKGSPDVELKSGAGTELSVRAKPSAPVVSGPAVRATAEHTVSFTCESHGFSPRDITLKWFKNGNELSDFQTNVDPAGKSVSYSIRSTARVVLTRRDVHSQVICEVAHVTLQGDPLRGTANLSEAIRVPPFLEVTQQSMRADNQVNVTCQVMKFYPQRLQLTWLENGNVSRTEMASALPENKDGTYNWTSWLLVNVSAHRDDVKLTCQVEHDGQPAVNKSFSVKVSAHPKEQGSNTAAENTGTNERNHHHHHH
Description: as §1

- IC50 [1]: 5.28 nM
- EC50 [3]: 0.181 nM
- EC50 [4]: 0.065 nM
- EC50 [5]: 0.143 nM
B1: humanized antibody mab14-h16 (antibody, human IgG4 S228P, kappa, V domains shown)
VH: QVQLVQSGAEVKKPGASVKVSCKASGYNFNIYWINWVRQAPGQGLEWIGNIYPSSISTNYNEKFKTRATLTVDKSTSTVYMELSSLRSEDTAVYYCARSEGTYYGGRYEGDWFGYWGQGTLVTVSS
VL: DIQMTQSPSSLSASVGDRVTITCRASQDIRNYLNWYQQKPGKAPKLLIYFTSTLHSGVPSRFSGSGSGTDFTLTISSLQPEDFATYYCQQGNTLPWTFGGGTKVEIKR
notes: hIgG4, κ
- binding result [2]: no binding (tested: the binding signal was not detected)
- binding result [6]: no binding (tested: the binding signal was not detected)
